Results taken from patent US20240321457A1 (University of California, published 2024).

How the values were obtained:
AKT1 E17K mutant = AKT1 E17K mutant (human, UniProt P31749 1-480); test: AP-MS, 3xFLAG bait, breast cell lines
BRCA1 5382insC = target: T1, BRCA1 5382insC (human, UniProt P38398 1-1755, limits assumed); test: AP-MS, MSstats WT vs mutant, MDA-MB-231 cells
T1 construct: 3xFLAG-tagged bait; also called 5832insC

BRCA1 S1655F = target: T2, BRCA1 S1655F (human, UniProt P38398 1-1863); test: AP-MS, MSstats WT vs mutant, MDA-MB-231 cells
T2 construct: 3xFLAG-tagged bait; also called BRCT domain mutant S1655F; 51655F

BRCA1 M1775R = target: T3, BRCA1 M1775R (human, UniProt P38398 1-1863); test: AP-MS, MSstats WT vs mutant, MDA-MB-231 cells
T3 construct: 3xFLAG-tagged bait; also called BRCT domain mutant M1775R

AKT3 E17K mutant = AKT3 E17K mutant (human, UniProt Q9Y243 1-479); test: AP-MS, 3xFLAG bait, breast cell lines
Chain of AKT3 E17K mutant (Q9Y243 whole entry E17K): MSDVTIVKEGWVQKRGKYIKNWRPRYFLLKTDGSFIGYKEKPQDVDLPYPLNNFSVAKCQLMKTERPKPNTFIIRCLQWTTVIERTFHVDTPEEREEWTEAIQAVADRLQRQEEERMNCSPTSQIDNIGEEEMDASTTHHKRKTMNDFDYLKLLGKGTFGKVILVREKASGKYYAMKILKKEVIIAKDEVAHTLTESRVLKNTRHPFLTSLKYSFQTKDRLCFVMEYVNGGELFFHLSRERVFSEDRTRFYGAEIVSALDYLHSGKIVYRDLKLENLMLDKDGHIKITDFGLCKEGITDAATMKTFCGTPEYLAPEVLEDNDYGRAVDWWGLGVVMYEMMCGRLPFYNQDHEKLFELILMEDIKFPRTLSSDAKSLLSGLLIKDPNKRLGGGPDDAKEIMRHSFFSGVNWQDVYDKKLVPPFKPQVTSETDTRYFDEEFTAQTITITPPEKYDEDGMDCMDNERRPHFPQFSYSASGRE

Chain of AKT1 E17K mutant (P31749 whole entry E17K): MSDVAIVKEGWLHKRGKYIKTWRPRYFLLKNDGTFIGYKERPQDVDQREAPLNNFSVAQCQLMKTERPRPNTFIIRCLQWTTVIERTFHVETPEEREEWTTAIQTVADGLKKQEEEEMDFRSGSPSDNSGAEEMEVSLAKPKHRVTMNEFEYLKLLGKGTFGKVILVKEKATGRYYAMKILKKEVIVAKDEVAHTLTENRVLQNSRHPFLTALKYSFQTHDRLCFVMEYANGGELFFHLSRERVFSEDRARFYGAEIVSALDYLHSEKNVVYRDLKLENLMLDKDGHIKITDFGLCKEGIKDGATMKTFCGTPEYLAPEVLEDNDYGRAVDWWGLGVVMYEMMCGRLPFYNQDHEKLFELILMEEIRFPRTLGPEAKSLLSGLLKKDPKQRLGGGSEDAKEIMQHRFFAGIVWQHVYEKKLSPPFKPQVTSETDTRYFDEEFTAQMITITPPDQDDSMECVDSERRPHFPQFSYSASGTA

Binder	binding result (AKT1 E17K mutant)	binding result (BRCA1 5382insC)	binding result (BRCA1 S1655F)	binding result (BRCA1 M1775R)	binding result (AKT3 E17K mutant)
CSTB (other, human, UniProt P04080 1-98, looked up, endogenous prey from cell lysate) MMCGAPSATQPATAETQHIADQVRSQLEEKENKKFPVFKAVSFKSQVVAGTNYFIKVHVGDEDFVHLRVFQSLPHENKPLTLSNYQTNKAKHDELTYF	no binding				
SPRR3 (other, human, UniProt Q9UBC9 2-169, looked up, endogenous prey from cell lysate) SSYQQKQTFTPPPQLQQQQVKQPSQPPPQEIFVPTTKEPCHSKVPQPGNTKIPEPGCTKVPEPGCTKVPEPGCTKVPEPGCTKVPEPGCTKVPEPGCTKVPEPGYTKVPEPGSIKVPDQGFIKFPEPGAIKVPEQGYTKVPVPGYTKLPEPCPSTVTPGPAQQKTKQK	no binding				
RBBP8 (other, human, UniProt Q99708 1-897, looked up, endogenous prey from cell lysate) MNISGSSCGSPNSADTSSDFKDLWTKLKECHDREVQGLQVKVTKLKQERILDAQRLEEFFTKNQQLREQQKVLHETIKVLEDRLRAGLCDRCAVTEEHMRKKQQEFENIRQQNLKLITELMNERNTLQEENKKLSEQLQQKIENDQQHQAAELECEEDVIPDSPITAFSFSGVNRLRRKENPHVRYIEQTHTKLEHSVCANEMRKVSKSSTHPQHNPNENEILVADTYDQSQSPMAKAHGTSSYTPDKSSFNLATVVAETLGLGVQEESETQGPMSPLGDELYHCLEGNHKKQPFEESTRNTEDSLRFSDSTSKTPPQEELPTRVSSPVFGATSSIKSGLDLNTSLSPSLLQPGKKKHLKTLPFSNTCISRLEKTRSKSEDSALFTHHSLGSEVNKIIIQSSNKQILINKNISESLGEQNRTEYGKDSNTDKHLEPLKSLGGRTSKRKKTEEESEHEVSCPQASFDKENAFPFPMDNQFSMNGDCVMDKPLDLSDRFSAIQRQEKSQGSETSKNKFRQVTLYEALKTIPKGFSSSRKASDGNCTLPKDSPGEPCSQECIILQPLNKCSPDNKPSLQIKEENAVFKIPLRPRESLETENVLDDIKSAGSHEPIKIQTRSDHGGCELASVLQLNPCRTGKIKSLQNNQDVSFENIQWSIDPGADLSQYKMDVTVIDTKDGSQSKLGGETVDMDCTLVSETVLLKMKKQEQKGEKSSNEERKMNDSLEDMFDRTTHEEYESCLADSFSQAADEEEELSTATKKLHTHGDKQDKVKQKAFVEPYFKGDERETSLQNFPHIEVVRKKEERRKLLGHTCKECEIYYADMPAEEREKKLASCSRHRFRYIPPNTPENFWEVGFPSTQTCMERGYIKEDLDPCPRPKRRQPYNAIFSPKGKEQKT		no binding	no binding	no binding	
BRIP1 (enzyme, human, UniProt Q9BX63 1-1249, looked up, endogenous prey from cell lysate) MSSMWSEYTIGGVKIYFPYKAYPSQLAMMNSILRGLNSKQHCLLESPTGSGKSLALLCSALAWQQSLSGKPADEGVSEKAEVQLSCCCACHSKDFTNNDMNQGTSRHFNYPSTPPSERNGTSSTCQDSPEKTTLAAKLSAKKQASIYRDENDDFQVEKKRIRPLETTQQIRKRHCFGTEVHNLDAKVDSGKTVKLNSPLEKINSFSPQKPPGHCSRCCCSTKQGNSQESSNTIKKDHTGKSKIPKIYFGTRTHKQIAQITRELRRTAYSGVPMTILSSRDHTCVHPEVVGNFNRNEKCMELLDGKNGKSCYFYHGVHKISDQHTLQTFQGMCKAWDIEELVSLGKKLKACPYYTARELIQDADIIFCPYNYLLDAQIRESMDLNLKEQVVILDEAHNIEDCARESASYSVTEVQLRFARDELDSMVNNNIRKKDHEPLRAVCCSLINWLEANAEYLVERDYESACKIWSGNEMLLTLHKMGITTATFPILQGHFSAVLQKEEKISPIYGKEEAREVPVISASTQIMLKGLFMVLDYLFRQNSRFADDYKIAIQQTYSWTNQIDISDKNGLLVLPKNKKRSRQKTAVHVLNFWCLNPAVAFSDINGKVQTIVLTSGTLSPMKSFSSELGVTFTIQLEANHIIKNSQVWVGTIGSGPKGRNLCATFQNTETFEFQDEVGALLLSVCQTVSQGILCFLPSYKLLEKLKERWLSTGLWHNLELVKTVIVEPQGGEKTNFDELLQVYYDAIKYKGEKDGALLVAVCRGKVSEGLDFSDDNARAVITIGIPFPNVKDLQVELKRQYNDHHSKLRGLLPGRQWYEIQAYRALNQALGRCIRHRNDWGALILVDDRFRNNPSRYISGLSKWVRQQIQHHSTFESALESLAEFSKKHQKVLNVSIKDRTNIQDNESTLEVTSLKYSTSPYLLEAASHLSPENFVEDEAKICVQELQCPKIITKNSPLPSSIISRKEKNDPVFLEEAGKAEKIVISRSTSPTFNKQTKRVSWSSFNSLGQYFTGKIPKATPELGSSENSASSPPRFKTEKMESKTVLPFTDKCESSNLTVNTSFGSCPQSETIISSLKIDATLTRKNHSEHPLCSEEALDPDIELSLVSEEDKQSTSNRDFETEAEDESIYFTPELYDPEDTDEEKNDLAETDRGNRLANNSDCILAKDLFEIRTIKEVDSAREVKAEDCIDTKLNGILHIEESKIDDIDGNVKTTWINELELGKTHEIEIKNFKPSPSKNKGMFPGFK		no binding	no binding	no binding	

Continued, values first:

binding result (AKT1 E17K mutant)	binding result (BRCA1 5382insC)	binding result (BRCA1 S1655F)	binding result (BRCA1 M1775R)	binding result (AKT3 E17K mutant)	Binder
				no binding	S100 Calcium Binding Protein A3 (other, human, UniProt P33764 2-101, looked up, endogenous prey from cell lysate; also called S100A3) ARPLEQAVAAIVCTFQEYAGRCGDKYKLCQAELKELLQKELATWTPTEFRECDYNKFMSVLDTNKDCEVDFVEYVRSLACLCLYCHEYFKDCPSEPPCSQ
				no binding	keratin KRT32 (other, human, UniProt Q14532 1-448, looked up, endogenous prey from cell lysate) MTSSCCVTNNLQASLKSCPRPASVCSSGVNCRPELCLGYVCQPMACLPSVCLPTTFRPASCLSKTYLSSSCQAASGISGSMGPGSWYSEGAFNGNEKETMQFLNDRLASYLTRVRQLEQENAELESRIQEASHSQVLTMTPDYQSHFRTIEELQQKILCTKAENARMVVNIDNAKLAADDFRAKYEAELAMRQLVEADINGLRRILDDLTLCKADLEAQVESLKEELMCLKKNHEEEVGSLRCQLGDRLNIEVDAAPPVDLTRVLEEMRCQYEAMVEANRRDVEEWFNMQMEELNQQVATSSEQLQNYQSDIIDLRRTVNTLEIELQAQHSLRDSLENTLTESEARYSSQLAQMQCMITNVEAQLAEIRADLERQNQEYQVLLDVRARLEGEINTYRSLLENEDCKLPCNPCSTPSCTTCVPSPCVPRTVCVPRTVGMPCSPCPQGRY
